Experimental data reported in patent US20220220508, “ENGINEERED CASX SYSTEMS” (Scribe Therapeutics Inc., published 2022).

Biological target: CasX2 (StX2, wild-type reference CasX) (Planctomycetes)
Assay: cleavage_in_vitro; kcleave; TTC PAM
Conditions: tags: N-terminal SV40 NLS, C-terminal NLS, TEV site and twin Strep tag; label: fluorescent
Experimental: In vitro cleavage assays were performed essentially as described in Example 19, using CasX 2 (SED ID NO:2), CasX 119, and CasX 438 complexed with single guide 174 with spacer 7.37 targeted against B2M. Fluorescently labeled dsDNA targets that would be complementary with a 7.37 spacer and either a ITC, CTC, CTC, or ATC PAM were used (The DNA sequences used to generate each dsDNA substrate are shown in Table 29. The PAM sequences for each are bolded. TS—target strand. NTS—Non-target strand). Target DNA was incubated with a 20-fold excess of the indicated RNP and the amount of cleaved target was determined at the indicated. time points. The monophasic fit of the combined replicates is shown. During the assay, samples were taken at 0.25, 0.5, 1, 2, 5, 10, 30, and 60 minutes. Gels were imaged with an Amersham Typhoon and quantified using the IQTL 8,2 software. Apparent first-order rate constants for non-target strand cleavage (kcleave) were determined for each Casx:sgRNA complex on each target. Rate constants for targets with non-TTC PAM were compared to the TIC PAM target to determine whether the relative preference for each PAM was altered for a given CasX variant. The results are shown in FIG. 73 (the monophasic fit of the combined replicates is shown) and Table 30. […]

B1: sgRNA 174.7.37 ; 7.37 TTC PAM target (ssRNA ; dsDNA)
RNA: ACUGGCGCUUUUAUCUGAUUACUUUGAGAGCCAUCACCAGCGACUAUGUCGUAGUGGGUAAAGCUCCCUCUUCGGAGGGAGCAUCAAAGGGCCGAGAUGUCUCGCUCCG
DNA 1: TGAAGCTGACAGCATTCGGGCCGAGATGTCTCGCTCCGTGGCCTTAGCTGTGCTCGCGCT
DNA 2: AGCGCGAGCACAGCTAAGGCCACGGAGCGAGACATCTCGGCCCGAATGCTGTCAGCTTCA
How did the activity turn out when B1 was run?
Its activity is 0.267 min⁻¹.
